In patent US20260225001A1, “COMPOSITIONS AND METHODS FOR PURIFYING BIOLOGICAL FLUIDS” (North Carolina State University, priority 2023, published 2026):

Experiments:
[1] = test system: Pichia pastoris HCPs; test: Contribution of individual PichiaGuard peptides to HCP binding (flow-through, BCA, proteomics, IgG incubation); conditions: for coverage of HCPs: FIG. 13, by theoretical isoelectric point; for number of HCPs bound (HCP binding density): FIG. 13, proteomics; for number of HCP species bound compared with PichiaGuard: FIGS. 14A-14H
Source text: Within HCP binding, it was observed that sequences 5 through 8 display the highest capacity for HCPs, followed by 4, 3 and 1. The same sequences in order also show low to high IgG binding potential, generating a qualitative understanding of binding capacity (Y-axis) and binding selectivity (HCP/IgG).
The color spectrum diverging from blue to red indicates an increasing number of HCPs with specific molecular weight (Y-axis) and theoretical isoelectric points (X-axis) captured by each peptide.
FIGS. 14A-14H compare the total number of identified HCPs bound by individual peptides with that of the PichiaGuard ensemble.
Analysis of PichiaGuard Peptide Contributions to HCP Binding: Contributions of individual peptides comprising PichiaGuard were discerned in terms of their binding to Pichia pastoris HCPs “by-sequence”. These studies comprised of the flow-through purification of null Pichia culture fluids (no recombinant protein), subsequently purified using chromatographic columns packed with individual peptides. The fluids were purified at a 1-minute residence time and flow-through fractions were collected across time for the identification of bound and unbound HCPs (see chromatograms in FIG. 11A). These fractions were analyzed using total protein quantification assay (BCA) and compared with that of the load sample to compute HCP log-reduction value for each individual sequence (FIG. 11B, left). Simultaneously, 25 μL of each peptide was incubated with a range of IgG concentrations (0.1-30 mg/mL resin) overnight to understand their binding propensities to the competitor molecules under non-competitive conditions. Protein content in the supernatant was estimated and compared to the initial concentrations to observe IgG binding (FIG. 11B, right). All flow-through fractions were analyzed through the proteomics workflow (as described further herein) to identify unbound HCPs and overall, correlate peptide and HCP properties. Briefly, label free quantification was performed to identify HCPs within each flow-through fraction and compared to the feed sample used within the experiment. The data was first grouped as a function of time for each peptide and data filters were applied based on the abundance ratio to label bound and unbound HCPs, at different confidence levels based on the number of fractions they were identified in. Concurrently, the “Peptides” package within RStudio was utilized to calculate sequence-based properties of each HCP such as polarity, H-bonding, hydrophobicity and charge.

[2] = target: K. phaffii host cell proteins (HCPs); test: flow-through chromatography, acetate buffer, RT 1 min, up to 10 CVs
[3] = target: K. phaffii host cell proteins (HCPs); test: flow-through chromatography, acetate buffer, RT 1 min, up to 40 CVs
[4] = target: K. phaffii host cell proteins (HCPs); test: flow-through affinity chromatography
[5] = target: K. phaffii host cell proteins (HCPs); test: flow-through chromatography, 30th CV mark
[6] = target: K. phaffii host cell proteins (HCPs); test: flow-through chromatography, around the 30th CV
[7] = target: K. phaffii host cell proteins (HCPs); test: flow-through purification of scFv perfusate, Pichia pastoris HCP ELISA; 150 CV load
[8] = target: K. phaffii host cell proteins (HCPs); test: flow-through chromatography, RT 1 min
[9] = target: K. phaffii host cell proteins (HCPs); test: flow-through chromatography, DOE study
[10] = target: K. phaffii host cell proteins (HCPs); test: static binding, Langmuir isotherm fit; acetate buffer pH 5.7
[11] = target: K. phaffii host cell proteins (HCPs); test: flow-through chromatography of ScFv13R4 harvest, nanoLC-MS/MS
[12] = target: K. phaffii host cell proteins (HCPs); test: static binding, Langmuir isotherm fit; phosphate buffer pH 7.1-7.2
[13] = target: K. phaffii host cell proteins (HCPs); test: flow-through chromatography, acetate buffer, RT 1 min, up to 20 CVs
[14] = target: K. phaffii host cell proteins (HCPs); test: flow-through chromatography, acetate buffer, RT 1 min, up to 100 CVs
[15] = target: K. phaffii host cell proteins (HCPs); test: flow-through chromatography of mAb harvest, acetate buffer, load up to 15 mg/mL
[16] = target: K. phaffii host cell proteins (HCPs); test: static binding, Langmuir isotherm fit, HCPs treated as a single species; acetate buffer pH 5.7
[17] = target: K. phaffii host cell proteins (HCPs); test: static binding, Langmuir isotherm fit, HCPs treated as a single species; phosphate buffer pH 7.1-7.2; pH 7.15
[18] = target: K. phaffii host cell proteins (HCPs); test: flow-through chromatography of ScFv13R4 harvest, 20 mM sodium acetate pH 5.7, RT 1 min; protein loading 2.10 g/L resin
[19] = target: K. phaffii host cell proteins (HCPs); test: flow-through chromatography of ScFv13R4 harvest, 20 mM sodium acetate pH 5.7, RT 1 min; protein loading 3.90 g/L resin
[20] = target: K. phaffii host cell proteins (HCPs); test: flow-through chromatography of ScFv13R4 harvest, 20 mM sodium acetate pH 5.7, RT 1 min; protein loading 5.10 g/L resin
[21] = target: K. phaffii host cell proteins (HCPs); test: flow-through chromatography of ScFv13R4 harvest, 20 mM sodium acetate pH 5.7, RT 1 min; protein loading 6.30 g/L resin
[22] = target: K. phaffii host cell proteins (HCPs); test: flow-through chromatography of ScFv13R4 harvest, 20 mM sodium acetate pH 5.7, RT 1 min; protein loading 7.50 g/L resin
[23] = target: K. phaffii host cell proteins (HCPs); test: flow-through chromatography of ScFv13R4 harvest, 20 mM sodium acetate pH 5.7, RT 1 min; protein loading 9.30 g/L resin
[24] = target: K. phaffii host cell proteins (HCPs); test: flow-through chromatography of ScFv13R4 harvest, 20 mM sodium acetate pH 5.7, RT 1 min; protein loading 14.40 g/L resin
[25] = target: K. phaffii host cell proteins (HCPs); test: flow-through chromatography, DOE study, acetate buffer
[26] = target: K. phaffii host cell proteins (HCPs); test: flow-through chromatography, DOE study, phosphate buffer

For YHKH [Peptide 1], the “coverage of HCPs” value [1] was “broad coverage of HCPs with varying pI”, the “number of HCPs bound (HCP binding density)” value (shortened to “number of HCPs bound”) [1] was “High HCP binding densities” and the “number of HCP species bound compared with PichiaGuard” value [1] was “binding most species”.

With QEKK [Peptide 5] the “coverage of HCPs” value [1] was “broad coverage of HCPs with varying pI”.

VWHH [Peptide 7] was tested, and the “coverage of HCPs” value [1] was “broad coverage of HCPs with varying pI” and the “number of HCP species bound compared with PichiaGuard” value [1] was “binding most species”.

Work on CHO LigaGuard™ resin yielded a cumulative HCP LRV [2] of 1 to 1.5 LRV and a cumulative HCP LRV [3] of 0.45 to 0.55 LRV.

In the case of EWAK [Peptide 4], the “coverage of HCPs” value [1] is reported as “broad coverage of HCPs with varying pI”, the “number of HCPs bound” value [1] is reported as “High HCP binding densities” and the “number of HCP species bound compared with PichiaGuard” value [1] is reported as “binding most species”.

In the case of RYWK [Peptide 2], the “selectivity (HCP vs IgG binding)” value ([1]; FIG. 14I, non-competitive conditions) is reported as “poor selectivity”.

With RYWV [Peptide 8] the “number of HCPs bound” value [1] was “least number of HCPs”.

WYKK [Peptide 6] was tested, and the “number of HCP species bound compared with PichiaGuard” value [1] was “binding most species”.

B1: PichiaGuard (peptide)
peptide 1: YHKH
peptide 2: RYWK
peptide 3: RWYQ
peptide 4: EWAK
peptide 5: QEKK
peptide 6: WYKK
peptide 7: VWHH
peptide 8: RYWV
modifications: bound to a chromatographic resin; which Toyopearl base is not said at these places
B1 was tested, and the % reduction of HCPs and hcDNA [4] was < 99%, the load at saturation as % of Qmax [5] was 75 % of Qmax and the load ratio at saturation (g of HCPs per L of resin) [5] was 18. The cumulative LRV at plateau [6] was 1 LRV, the fractional LRV [6] was < 0.5 LRV and the HCP removal (logs) [7] was 1.7 logs.

B2: PichiaGuard-TP650M resin (peptide)
peptide 1: YHKH
peptide 2: RYWK
peptide 3: RWYQ
peptide 4: EWAK
peptide 5: QEKK
peptide 6: WYKK
peptide 7: VWHH
peptide 8: RYWV
modifications: bound to Toyopearl AF-Amino-650M resin
B2 gave a fold change of HCP clearance activity, phosphate buffer against acetate buffer [8] of 10 fold lower, an HCP LRV [9] of 3 LRV and a Qmax (maximum binding capacity) (mg HCP per mL resin) [10] of 25.4. For the same molecule, the % of HCPs completely removed [11] was > 84%, the % of HCPs partially cleared [11] was 15% and the Qmax (maximum binding capacity) (mg HCP per mL resin) [12] was 18.3. The cumulative HCP LRV [2] was > 2 LRV, the cumulative HCP LRV [13] was 1.5 to 2 LRV and the cumulative HCP LRV [14] was 1.3 LRV. The overall HCP LRV [15] was 1.15 LRV, the Kd [16] was 17.5 µM and the Kd [17] was 30 µM. The cumulative HCP LRV [18] was 3 LRV, the cumulative HCP LRV [19] was 2.55 LRV and the cumulative HCP LRV [20] was 1.92 LRV. For the same molecule, the cumulative HCP LRV [21] was 1.55 LRV, the cumulative HCP LRV [22] was 1.34 LRV and the cumulative HCP LRV [23] was 1.14 LRV. The cumulative HCP LRV [24] was 1.01 LRV.

B3: PichiaGuard-TP50F resin (peptide)
peptide 1: YHKH
peptide 2: RYWK
peptide 3: RWYQ
peptide 4: EWAK
peptide 5: QEKK
peptide 6: WYKK
peptide 7: VWHH
peptide 8: RYWV
modifications: bound to aminated Toyopearl HW-50F resin
B3 was tested, and the HCP LRV [25] was 0.7 to 0.9 LRV and the HCP LRV [26] was 0.8 to 1 LRV.
